From IntAct's records for PubMed 22460785

How the values were obtained:
myh9_human MYH9 [1] = target: myh9_human MYH9 (UniProt P35579)
myh9_human MYH9 [2] = target: myh9_human MYH9 (UniProt P35579); remark: listed apart in the source

Sequence of myh9_human MYH9 (P35579 whole entry): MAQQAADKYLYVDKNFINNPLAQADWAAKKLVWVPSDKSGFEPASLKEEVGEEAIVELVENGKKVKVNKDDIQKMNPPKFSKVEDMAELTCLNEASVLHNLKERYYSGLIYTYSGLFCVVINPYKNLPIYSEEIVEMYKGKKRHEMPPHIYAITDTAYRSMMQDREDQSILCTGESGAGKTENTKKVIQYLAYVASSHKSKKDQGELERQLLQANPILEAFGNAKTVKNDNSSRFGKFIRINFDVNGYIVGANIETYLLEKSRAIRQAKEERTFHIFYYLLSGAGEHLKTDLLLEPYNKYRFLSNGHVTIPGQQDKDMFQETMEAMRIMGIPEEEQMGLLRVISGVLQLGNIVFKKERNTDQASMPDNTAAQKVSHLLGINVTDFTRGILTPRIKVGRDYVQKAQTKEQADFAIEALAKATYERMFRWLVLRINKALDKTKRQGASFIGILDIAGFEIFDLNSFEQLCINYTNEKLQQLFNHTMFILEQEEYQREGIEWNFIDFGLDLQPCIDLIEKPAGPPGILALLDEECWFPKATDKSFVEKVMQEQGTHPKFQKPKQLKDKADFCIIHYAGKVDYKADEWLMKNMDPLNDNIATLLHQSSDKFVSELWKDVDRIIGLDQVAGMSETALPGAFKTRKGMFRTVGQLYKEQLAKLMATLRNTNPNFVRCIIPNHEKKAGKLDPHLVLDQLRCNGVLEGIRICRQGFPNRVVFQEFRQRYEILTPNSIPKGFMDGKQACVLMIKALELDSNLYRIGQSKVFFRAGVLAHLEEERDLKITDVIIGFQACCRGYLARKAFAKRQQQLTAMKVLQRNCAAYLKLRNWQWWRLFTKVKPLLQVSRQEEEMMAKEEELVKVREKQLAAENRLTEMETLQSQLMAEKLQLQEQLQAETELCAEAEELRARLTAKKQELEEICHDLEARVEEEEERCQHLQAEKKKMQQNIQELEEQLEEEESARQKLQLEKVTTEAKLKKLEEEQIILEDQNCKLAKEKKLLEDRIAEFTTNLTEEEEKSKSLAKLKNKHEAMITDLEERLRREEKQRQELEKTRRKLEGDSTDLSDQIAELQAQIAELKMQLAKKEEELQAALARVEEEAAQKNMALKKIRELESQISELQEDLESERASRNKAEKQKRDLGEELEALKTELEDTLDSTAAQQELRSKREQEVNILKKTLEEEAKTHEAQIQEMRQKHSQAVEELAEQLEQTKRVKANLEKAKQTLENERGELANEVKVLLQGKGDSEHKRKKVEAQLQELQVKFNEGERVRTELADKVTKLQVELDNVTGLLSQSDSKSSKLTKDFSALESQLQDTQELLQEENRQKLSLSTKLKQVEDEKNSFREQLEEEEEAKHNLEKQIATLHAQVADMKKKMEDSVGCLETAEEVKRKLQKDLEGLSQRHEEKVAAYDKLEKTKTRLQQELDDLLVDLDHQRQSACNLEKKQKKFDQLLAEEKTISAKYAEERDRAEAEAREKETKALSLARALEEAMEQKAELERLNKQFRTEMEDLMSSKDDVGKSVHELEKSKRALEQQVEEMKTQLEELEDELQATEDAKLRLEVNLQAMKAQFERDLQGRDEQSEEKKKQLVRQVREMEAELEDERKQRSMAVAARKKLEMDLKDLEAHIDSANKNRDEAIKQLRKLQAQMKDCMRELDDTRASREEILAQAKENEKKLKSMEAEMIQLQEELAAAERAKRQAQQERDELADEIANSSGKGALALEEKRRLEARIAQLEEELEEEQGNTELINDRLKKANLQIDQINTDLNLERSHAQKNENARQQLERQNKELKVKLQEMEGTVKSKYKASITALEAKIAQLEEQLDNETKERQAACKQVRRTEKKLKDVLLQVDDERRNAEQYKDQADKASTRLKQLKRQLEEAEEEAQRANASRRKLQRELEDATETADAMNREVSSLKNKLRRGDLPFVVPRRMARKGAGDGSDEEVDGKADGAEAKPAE
Sequence of Protein S100-A4 (Homo sapiens), P26447 C3S;F45W;C81S;C86S (P26447 whole entry C3S/F45W/C81S/C86S): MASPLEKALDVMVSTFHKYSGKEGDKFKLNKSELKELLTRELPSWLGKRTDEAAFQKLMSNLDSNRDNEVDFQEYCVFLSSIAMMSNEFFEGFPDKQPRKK

Substance: Protein S100-A4 (Homo sapiens), P26447 F45W
- effect of a mutation on the interaction (myh9_human MYH9 [1]): with no effect

Substance: Protein S100-A4 (Homo sapiens), P26447 C3S;F45W;C81S;C86S
- effect of a mutation on the interaction (myh9_human MYH9 [2]): decreasing interaction strength
